Measured values from patent US6426335, “Vascular endothelial growth factor (VEGF) nucleic acid ligand complexes” (Gilead Sciences, Inc.).

B1: NX213 (mixed)
mixed: TTTTACCCUGAUGGUAGACGCCGGGGUGTTTTT
modifications: PS DNA T at 1-4 and 29-33; 2'-OMe at 5,13,16,17,20,23-26,28; 2'-NH2 at 6-9,12,15,19,21,22,27

Assays:
VEGF165 [1] = target: T1, VEGF165 (Homo sapiens, UniProt P15692-4 P15692-4:27-191); experiment: filter; 37C; conditions: tags: R&D Systems carrier-free, expressed in Sf21 insect cells; chain copies: homodimer (inferred)
T1 sequence (P15692 other isoform, or with tags, fused parts or gaps): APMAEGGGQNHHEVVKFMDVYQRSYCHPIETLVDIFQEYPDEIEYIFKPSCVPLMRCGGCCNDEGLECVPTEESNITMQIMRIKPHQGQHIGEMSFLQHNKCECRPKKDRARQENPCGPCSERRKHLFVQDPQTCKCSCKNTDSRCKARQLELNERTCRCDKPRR
Method: (§1) Nucleic Acid Ligands radiolabeled during transcription by incorporation of α-[^32P]-labeled NTPs, or after synthesis using γ-[^32P]-ATP and T4 polynucleotide kinase, were incubated in low concentration (between 20 and 71 pM) with varying concentrations of VEGF or other growth factors at 37° C. for 15 minutes. Incubations were in TBS, PBS, or HEPES-buffered saline (HBS), pH 7.4, with or without the addition of supplemental divalent cations. Samples were passed through prewashed 0.45μ Type HA filters (Millipore) followed by a 5–10 ml wash with binding buffer. Filters were immersed in scintillant and counted to quantitate the amount of protein-bound RNA retained by each filter. The equilibrium dissociation constant (K_D) of Nucleic Acid Ligand binding to a specific protein was calculated from the data points as described in Green et al. (1996) Biochem. 35:14413–14424.

VEGF165 [2] = target: T1, VEGF165; experiment: EMSA; competition EMSA; apparent affinity; VEGF isoform not stated; conditions: tags: R&D Systems carrier-free, expressed in Sf21 insect cells; chain copies: homodimer (inferred)
Method: The binding affinities of the unmodified Nucleic Acid Ligand (NX213, open circle), its dialkyl glycerol modified analog (NX278, open diamond) and liposomal NX278 (NX278-L, open square), along with the sequence scrambled (sc) controls (scNX213, closed circle; scNX278, closed diamond; and scNX278-L, closed square) were determined by a competition electrophoreticmobility shift assay. NX213 is 5'-TsTsTsTs mAaCaC aCaUrG rAaUmG rGaUmA mGrAaC mGaCaC mGmGmG mGaUmG TsTsTsTsT-3' and scNX213 is (SEQ ID NO:1) 5'-TsTsTsTs mGaUaC mGmGaU mAaCrG mGrAmG aUmGrG rAaCnC mGaUaC mAaCmG TsTsTsTsT-3' (SEQ ID NO:4) ^32P 5=end-labeled NX-213 (1.5 nM) was incubated in binding buffer (phosphate buffered saline with 0.01% human serum albumin) at 37° C. for 20 min in the presence of VEGF (0.33 nM) and competitor oligonucleotide(5 pM-0.33 µM). The ^32p NX-213/VEGF complex was resolved from the free ^32p NX-213 by electrophoresison 8% polyacrylamide gel (19:1 acrylamide:bisacrylamide, Tris-borate, 89 mM, 1 mM EDTA as the running buffer). The intensity of the band corresponding to ^32P NX-213/VEGF complex at varying competitor concentrations was quantitated by phosphorimager analysis. Data normalized for the amount of complex formed in the absence of competitor were fitted by the least squares method to the competition binding equation. […]

VEGF165 [3] = target: T1, VEGF165; experiment: described previously, quoted for comparison; conditions: tags: R&D Systems carrier-free, expressed in Sf21 insect cells; chain copies: homodimer (inferred); label: 32P 5' end
VEGF165 [4] = target: T1, VEGF165; experiment: filter; 37C; Ca2+ dependent; conditions: tags: R&D Systems carrier-free, expressed in Sf21 insect cells; chain copies: homodimer (inferred)
Method: as §1

Binder	Kd (VEGF165 [1]) [nM]	further results
GAAUCAGUGAAUGCUUAUACAUCT (ssRNA, 2'-F pyrimidines; 3'-3' dT cap (N24) [24 (3'-3' dT cap); all C/U 2'-F]) [t44c]	2	–
TTTTACCCUGAUGGUAGACGCCGGGGUGTTTTT (mixed, as NX278, embedded in DSPC:cholesterol liposome) [NX278-Liposome]	–	binding signal (VEGF165 [2]): 3 fold lower than NX278
B1	–	Kd (VEGF165 [3]): 0.14 nM
AACCGAUGGAAUUUUUGGACGCUT (ssRNA, 2'-F pyrimidines; 3'-3' dT cap (N24) [24 (3'-3' dT cap); all C/U 2'-F]) [t2d]	20	–
GCGGAAUCAGUGAAUGCUUAUACAUCCGCT (ssRNA, 2'-F pyrimidines; 3'-3' dT cap (N30) [30 (3'-3' dT cap); all C/U 2'-F]) [t44]	–	Kd (VEGF165 [4]): 0.01 nM
GAACCGAUGGAAUUUUUGGACGCUCT (ssRNA, 2'-F pyrimidines; 3'-3' dT cap (N26) [26 (3'-3' dT cap); all C/U 2'-F]) [t2c]	0.2	–
